In patent US20110212108A1, “NEUREGULIN/ERBB SIGNALING AND INTEGRIN” (THE REGENTS OF THE UNIVERSITY OF CALIFORNIA, priority 2008, published 2011):
Substitutions are numbered along the chain they refer to. Entries after “also recorded” stand apart in the source; their conditions may differ. Values belong to the molecule of their own block, whether it stands above or below them. Ends that are not written are not given here. GST = glutathione S-transferase

Columns and labels:
integrin αvβ3 = target: T1, integrin αvβ3 (Homo sapiens, UniProt P05106+P06756); test: ELISA-type binding of soluble recombinant integrin αvβ3 to immobilized NRG1 fragments; conditions: soluble αvβ3, 1 mM Mn2+, room temperature
T1 construct: Soluble recombinant integrin αvβ3 (5 μg/ml) was added to the wells; made in house
T1 sequence (P06756 31-992 limits assumed): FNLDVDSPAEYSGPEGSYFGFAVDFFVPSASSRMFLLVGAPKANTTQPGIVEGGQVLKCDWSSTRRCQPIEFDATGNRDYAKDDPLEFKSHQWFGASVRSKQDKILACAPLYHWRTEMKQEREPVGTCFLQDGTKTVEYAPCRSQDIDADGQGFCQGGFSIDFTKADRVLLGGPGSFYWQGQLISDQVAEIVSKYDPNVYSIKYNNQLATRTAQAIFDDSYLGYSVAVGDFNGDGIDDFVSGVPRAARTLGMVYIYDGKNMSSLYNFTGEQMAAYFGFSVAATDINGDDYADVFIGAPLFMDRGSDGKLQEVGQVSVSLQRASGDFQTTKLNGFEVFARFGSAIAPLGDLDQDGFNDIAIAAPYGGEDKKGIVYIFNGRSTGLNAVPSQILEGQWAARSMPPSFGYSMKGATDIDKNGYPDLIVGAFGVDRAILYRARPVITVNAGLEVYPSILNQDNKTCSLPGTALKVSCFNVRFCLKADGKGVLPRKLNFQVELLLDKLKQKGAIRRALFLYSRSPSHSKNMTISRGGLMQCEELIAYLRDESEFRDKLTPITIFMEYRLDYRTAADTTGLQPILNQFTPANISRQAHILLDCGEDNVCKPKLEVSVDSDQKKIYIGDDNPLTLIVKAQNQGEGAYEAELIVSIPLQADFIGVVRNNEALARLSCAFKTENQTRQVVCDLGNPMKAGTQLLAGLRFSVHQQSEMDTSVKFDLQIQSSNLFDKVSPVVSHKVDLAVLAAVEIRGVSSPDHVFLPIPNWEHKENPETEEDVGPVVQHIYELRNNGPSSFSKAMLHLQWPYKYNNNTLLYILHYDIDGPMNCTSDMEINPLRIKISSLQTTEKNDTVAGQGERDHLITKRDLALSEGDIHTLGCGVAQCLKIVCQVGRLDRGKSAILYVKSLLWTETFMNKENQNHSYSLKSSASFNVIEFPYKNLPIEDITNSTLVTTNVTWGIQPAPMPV
T1 sequence (P05106 27-718 limits assumed): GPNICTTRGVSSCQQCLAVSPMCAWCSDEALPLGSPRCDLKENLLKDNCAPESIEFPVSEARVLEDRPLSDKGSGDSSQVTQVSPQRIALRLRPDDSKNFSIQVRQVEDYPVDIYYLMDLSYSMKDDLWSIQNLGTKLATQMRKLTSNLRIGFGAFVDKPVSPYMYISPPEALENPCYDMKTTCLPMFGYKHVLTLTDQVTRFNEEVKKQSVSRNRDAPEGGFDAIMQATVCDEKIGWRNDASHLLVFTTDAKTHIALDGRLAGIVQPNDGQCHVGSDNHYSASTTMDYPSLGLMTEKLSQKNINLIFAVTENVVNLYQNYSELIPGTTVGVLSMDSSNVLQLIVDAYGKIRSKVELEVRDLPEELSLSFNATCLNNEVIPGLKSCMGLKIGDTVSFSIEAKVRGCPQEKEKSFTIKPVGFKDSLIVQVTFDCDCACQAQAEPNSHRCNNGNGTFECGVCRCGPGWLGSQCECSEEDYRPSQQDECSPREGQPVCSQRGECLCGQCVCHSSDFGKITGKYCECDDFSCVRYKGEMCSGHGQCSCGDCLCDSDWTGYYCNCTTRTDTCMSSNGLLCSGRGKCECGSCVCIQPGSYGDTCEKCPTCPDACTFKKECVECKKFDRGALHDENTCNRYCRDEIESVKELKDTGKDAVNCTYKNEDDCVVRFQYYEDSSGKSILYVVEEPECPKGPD
Method: FIG. 1. […] The isolated EGF-like domain of Wt NRG1 was immobilized to wells of 96-well titer plates. The concentrations of the coating solution are shown. Soluble recombinant integrin αvβ3 (5 μg/ml) was added to the wells in the presence of 1 mM Mn^2+ and incubated for 2 h at room temperature. After washing the wells bound αvβ3 was determined by using anti-β3 antibody and HRP-conjugated anti-mouse IgG. The data is shown as means+/−SEM of triplicate experiments. FIG. 7. […] Wt GST-NRG1 (175-222) and the 2KE mutant of GST-NRG1 (175-222) were immobilized to wells of 96-well titer plates. The concentrations of the coating solution are shown. Soluble recombinant integrin αvβ3 (5 μg/ml) was added to the wells in the presence of 1 mM Mn^2+ and incubated for 2 h at room temperature. After washing, the wells bound αvβ3 was determined by using anti-β3 antibody and HRP-conjugated anti-mouse IgG. The data are shown as means+/−SD of triplicate experiments. […] Direct αvβ3-NRG (175-222) interaction: It has been well established that the EGF-like domain of the NRGs is sufficient to specifically activate ErbB receptors and to induce cellular responses in culture. To generate GST-NRG1 EGF-like domain fusion protein, the cDNA fragment of the EGF-like domain of NRG1 was amplified by PCR and subcloned into PGEX-2T vector to generate GST-NRG1 EGF-like domain fusion protein (designated GST-NRG1 (175-222)) in E. coli BL21. The fusion protein was purified in glutathione-affinity chromatography. The affinity resin was extensively washed with 1% Triton X-114 to remove endotoxin before eluting the protein. It was tested, in the present invention, whether soluble recombinant integrin αvβ3 binds to GST-NRG1 (175-222) that is immobilized to plastic wells (ELISA-type assay). […] Cell adhesion and soluble integrin binding assays were performed as described previously (Mori, et al., 2008). NRG1α (175-241) was immobilized to wells of 96-well microtiter plate overnight at 4° C. in 0.1 M carbonate buffer, pH 2 9.4. Remaining protein binding sites were blocked by incubating with 200 μl of 0.1% BSA in PBS for 60 min at room temperature. Wells were then incubated with soluble integrin αvβ3 in 50 μl in Hepes-Tyrode's buffer supplemented with 1 mM Mn2+ at room temperature for 60 min. After rinsing the wells with the same buffer, bound integrins were determined by horseradish peroxidase (HRP)-conjugated anti-His tag mouse IgG and substrate 3,3′,5,5′-tetramethylbenzidine of HRP.

[1] = system: mammary intraepithelial neoplasia-outgrowth (MIN-O); test: Outgrowth of precancer (MIN-O) in FVB mice; type: in vivo; conditions: 200 ng/day/mouse intraperitoneally, 5 days a week for 4 weeks; P=0.0355
Method: FIG. 16. Inhibitory effect of daily intraperitoneal injection of 3KE (175-222) on the outgrowth of precancer (MIN-O) in FVB mice. MIN-O was transplanted into fat pads of FVB mice (two per mice) and 3KE (175-222) (200 ng/mouse/day) was injected 5 days a week for 4 weeks starting day 0. After 28 days, mice were sacrificed and the dimensions of tumors were measured. Since MIN-O grows as a thin layer, the two-dimensional size was calculated and the thickness was ignored. P=0.0355 by ANOVA between control and 3KE (175-222).
To study the effect of 3KE (175-222) on the premalignant cancer, transplantable mammary intraepithelial neoplasia-outgrowth (MIN-O) tissue lines, which were derived from hyperplastic mammary lesions in young Tg(MMTV-PyV-mT) females (Maglione et al. 2004), were used. The resulting lesions mimic the biological behavior, molecular biology, and histopathology of human ductal carcinoma in situ (Maglione et al. 2004). One mm^3 pieces of the 8w-BMINO tissues (Maglione et al. 2004) were transplanted to gland-cleared no. 4 mammary fat pads of 3-week-old FVB females bilaterally.

[2] = target: T2, human integrin αvβ3 on K562 erythroleukemic cells (αvβ3-K562) (human, UniProt P06756 31-1048; P05106 27-788); test: cell adhesion to immobilised NRG1α
T2 construct: whole, on cells; also called K562 cells that express human αvβ3
T2 sequence (P06756 31-1048, chain 1 of 2): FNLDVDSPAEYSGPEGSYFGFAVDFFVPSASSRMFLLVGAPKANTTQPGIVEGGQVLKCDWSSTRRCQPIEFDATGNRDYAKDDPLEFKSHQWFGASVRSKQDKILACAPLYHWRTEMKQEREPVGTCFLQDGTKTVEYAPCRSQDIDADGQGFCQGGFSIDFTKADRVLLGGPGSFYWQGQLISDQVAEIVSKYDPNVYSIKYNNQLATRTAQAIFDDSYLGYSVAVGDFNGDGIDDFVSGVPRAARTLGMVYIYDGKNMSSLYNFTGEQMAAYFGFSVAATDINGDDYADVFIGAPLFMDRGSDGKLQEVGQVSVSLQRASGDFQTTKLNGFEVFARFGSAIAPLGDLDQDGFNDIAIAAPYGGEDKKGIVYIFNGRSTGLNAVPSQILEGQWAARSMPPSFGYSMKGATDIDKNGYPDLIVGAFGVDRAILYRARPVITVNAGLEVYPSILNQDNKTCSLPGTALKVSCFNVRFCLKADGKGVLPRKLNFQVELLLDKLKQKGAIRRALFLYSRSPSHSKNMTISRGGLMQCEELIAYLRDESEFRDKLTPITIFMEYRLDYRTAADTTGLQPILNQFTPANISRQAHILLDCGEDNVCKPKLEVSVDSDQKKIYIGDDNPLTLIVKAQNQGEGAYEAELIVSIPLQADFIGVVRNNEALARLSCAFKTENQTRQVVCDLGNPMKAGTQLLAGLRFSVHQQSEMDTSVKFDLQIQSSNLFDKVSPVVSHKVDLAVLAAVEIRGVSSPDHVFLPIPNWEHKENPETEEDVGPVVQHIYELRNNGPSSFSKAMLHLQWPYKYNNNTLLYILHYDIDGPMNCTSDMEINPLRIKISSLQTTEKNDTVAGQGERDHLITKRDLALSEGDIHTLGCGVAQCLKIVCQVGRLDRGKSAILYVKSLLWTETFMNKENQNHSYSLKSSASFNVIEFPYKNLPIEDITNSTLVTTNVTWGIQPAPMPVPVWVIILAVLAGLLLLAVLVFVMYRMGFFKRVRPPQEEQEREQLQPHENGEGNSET
T2 sequence (P05106 27-788, chain 2 of 2): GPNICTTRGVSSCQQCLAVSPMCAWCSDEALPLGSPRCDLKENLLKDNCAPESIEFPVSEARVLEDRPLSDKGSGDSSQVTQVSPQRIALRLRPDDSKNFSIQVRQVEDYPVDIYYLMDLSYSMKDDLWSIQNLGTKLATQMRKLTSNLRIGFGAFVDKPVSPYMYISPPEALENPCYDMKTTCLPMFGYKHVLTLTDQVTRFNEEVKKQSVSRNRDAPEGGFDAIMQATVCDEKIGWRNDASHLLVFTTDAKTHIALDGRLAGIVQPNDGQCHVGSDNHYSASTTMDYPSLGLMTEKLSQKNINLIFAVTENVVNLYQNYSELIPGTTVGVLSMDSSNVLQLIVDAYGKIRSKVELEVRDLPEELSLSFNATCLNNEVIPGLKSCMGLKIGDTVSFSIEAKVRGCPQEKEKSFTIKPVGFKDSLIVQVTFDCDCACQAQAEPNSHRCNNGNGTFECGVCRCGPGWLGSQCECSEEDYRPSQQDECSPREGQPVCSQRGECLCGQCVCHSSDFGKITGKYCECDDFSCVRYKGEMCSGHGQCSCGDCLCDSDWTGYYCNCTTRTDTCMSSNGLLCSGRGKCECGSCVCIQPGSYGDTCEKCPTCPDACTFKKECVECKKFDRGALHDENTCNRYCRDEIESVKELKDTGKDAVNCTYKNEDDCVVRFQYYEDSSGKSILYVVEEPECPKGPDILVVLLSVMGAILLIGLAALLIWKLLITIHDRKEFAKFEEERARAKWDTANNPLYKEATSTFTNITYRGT

[3] = target: T3, Recombinant human ErbB3 Fc chimera (R&D Systems) (human, UniProt P21860 20-643); test: ELISA-type assay, ErbB3 Fc coated at 1 µg/ml, bound GST fusion detected with anti-GST HRP
T3 construct: Bought from R&D Systems; also called recombinant soluble ErbB3 Fc fusion protein; recombinant soluble ErbB3; Fc part of the bought chimera not given; not described
T3 sequence (P21860 20-643, change not shown): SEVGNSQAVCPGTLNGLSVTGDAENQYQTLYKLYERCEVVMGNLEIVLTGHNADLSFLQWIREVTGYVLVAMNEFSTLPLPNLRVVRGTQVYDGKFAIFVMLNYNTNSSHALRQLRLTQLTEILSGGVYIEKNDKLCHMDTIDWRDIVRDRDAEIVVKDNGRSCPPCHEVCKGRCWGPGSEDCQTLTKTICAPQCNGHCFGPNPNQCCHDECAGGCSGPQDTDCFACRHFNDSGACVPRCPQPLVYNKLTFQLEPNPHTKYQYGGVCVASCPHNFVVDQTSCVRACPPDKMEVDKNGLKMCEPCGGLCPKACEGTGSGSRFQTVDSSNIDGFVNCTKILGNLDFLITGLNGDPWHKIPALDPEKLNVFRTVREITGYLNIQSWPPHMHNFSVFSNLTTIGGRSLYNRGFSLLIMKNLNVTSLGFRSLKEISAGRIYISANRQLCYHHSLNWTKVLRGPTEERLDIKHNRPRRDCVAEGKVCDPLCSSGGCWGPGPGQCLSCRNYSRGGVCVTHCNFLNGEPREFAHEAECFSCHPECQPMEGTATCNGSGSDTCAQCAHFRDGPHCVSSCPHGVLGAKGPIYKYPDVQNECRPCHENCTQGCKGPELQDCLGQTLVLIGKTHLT

[4] = target: T2, human integrin αvβ3 on K562 …; test: cell adhesion of αvβ3-K562 cells
[5] = target: T2, human integrin αvβ3 on K562 …; test: cell adhesion of αvβ3-K562 cells to immobilised 3KE (175-222)
[6] = target: T4, human integrin α6β4 on CHO cells (α6β4-CHO) (human, UniProt P23229 24-1130; P16144 28-1822); test: cell adhesion of α6β4-CHO cells to immobilised 3KE (175-222)
T4 construct: whole, on cells; also called keratinocyte integrin α6β4

Molecule: 2KE (175-222): NRG1 (175-222) with Lys185/Lys187 mutated to Glu; GTSHLVKCAEEEETFCVNGGECFMVKDLSNPSRYLCKCQPGFTGARCT (SEQ ID NO:12) (integrin-binding site within human neuregulin, 2KE mutant, short version)
Binding of soluble recombinant integrin αvβ3 to the immobilized protein (integrin αvβ3): much lower affinity to αvβ3; also recorded: did not

B1: γC399tr: Control protein in the MIN-O experiment (protein)
chain: KDCQDIANKGAKQSGLYFIKPLKANQQFLVYCEIDGSGNGWTVFQKRLDGSVDFKKNWIQYKEGFGHLSPTGTTEFWLGNEKIHLISTQSAIPYALRVELEDWNGRTSTADYAMFKVGPEADKYRLTYAYFAGGDAGDAFDGFDFGDDPSDKFFTSHNGMQFSTWDNDNDKFEGNCAEQDGSGWWMNKCHAGHLNGVYYQGGTYSKASTPNGYDNGIIWATWKTRWYSMKKTTMKIIPFNRLTIGEGQQ
Outgrowth of MIN-O in FVB mice [1]: did not affect the outgrowth of MIN-O

binding result [2]: binds | binding result [3]: binds
B2: GST-NRG1α (175-241), wild type (EGF-like motif and α domain of human neuregulin 1α as GST fusion protein) (ligand)
chain: GTSHLVKCAEKEKTFCVNGGECFMVKDLSNPSRYLCKCQPGFTGARCTENVPMKVQNQEKAEELYQK
notes: not shown: glutathione S-transferase (GST) tag as encoded by the pGEX-2T vector, N-terminal

binding result [3]: binds
B3: 3KE (175-241) mutant of NRG1α (Lys181/Lys185/Lys187 to Glu), GST fusion protein (ligand, not shown: a dimerising Fc or GST; large carriers; small tags and cut ends)
chain: B2 chain with K7E, K11E, K13E

binding result [4]: binds
B4: GST-NRG1 (175-222), wild type EGF-like domain of human neuregulin 1 as GST fusion protein (ligand)
chain: {GST}-GTSHLVKCAEKEKTFCVNGGECFMVKDLSNPSRYLCKCQPGFTGARCT
modifications: not fully specified; cysteine pairing not given here
notes: Made in E. coli as GST fusion (pGEX-2T); not shown: glutathione S-transferase (GST) tag as encoded by the pGEX-2T vector, N-terminal

binding result [5]: no binding | binding result [6]: no binding
B5: 3KE (175-222) mutant of NRG1 (Lys181/Lys185/Lys187 to Glu), GST fusion protein (ligand, not shown: a dimerising Fc or GST; large carriers; small tags and cut ends)
chain: GTSHLVECAEEEETFCVNGGECFMVKDLSNPSRYLCKCQPGFTGARCT
